The subject of the data set is Bacillus subtilis DB104 (SP-AmyQ fusion secretion). Description: AmyQ secretion efficiency, weighted average sort bin (1 = best secretion, 10 = worst) (bin number (weighted average, 1-10)); higher = lower secretion efficiency. The procedure, abridged:
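B. subtilis DB104 library expressing mature AmyQ fused to designed signal peptides (amyE-integrated) was encapsulated at about 0.3 cells per ~65 nL alginate bead with fluorescein-starch, grown about 13 h at room temperature and nile red stained. Occupied beads were sorted by large-particle flow cytometry into 10 equally populated bins by green/red fluorescence ratio, and each bin's amplicons were Illumina-sequenced. Secretion score is the read-frequency-weighted average bin number, normalised to beads per bin, excluding low-abundance sequences.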

“And” between values parts separate entries of the source, which are not always exact repeats. Equal values may be shown once.

For MKVLLSALLLLLFAEDEEEEASGKKL, the AmyQ secretion efficiency came out at 5.86.
Then MKRLFMKASLVLFAVVFVFAVKGADAKAETH, with 2.52.
The sequence MFKKLLLATSALTFSLSLVLKLRGHAKAQEV yielded an AmyQ secretion efficiency of 6.07.
Under MRFTKVVGFLSVLGLAAVFPLTVQAEKA stands 3.18.
In the case of MKKSRRALLLLLFAFEPSASGKKL, the AmyQ secretion efficiency worked out at 7.28.
Under MKWMCSICCAAVLLAGGAAQIEAV stands 2.05; under MLCVMMLLFSAIAPDPSGAQAKDQ, 4.72.
Then “MLKKIALTLCPAIVGSLLFFTAPAPVAVASFAAAASAHVS”, with 5.09; and MPYLKRVLLLLVTGLFMSLFAVTATASGQTG, with 1.24.
“MNIKKFAKQATVLTFTTALLAGGATQAFAKET [wt_31]” displayed an AmyQ secretion efficiency of 3.5.
Then MKKWIYGGQTGKIAGIGGFSVHAASS, with 6.97; and MKVPKTMLLSTAAGLLLSLTATSVSWHYV, with 4.99; and MFKKHTISLLIIFLLASAVLAKPPPTTATIEAHTV, with 7.2.
Take MKRFLIGAGVAAVILFSITFSGWFIADHQTHSQEM: the AmyQ secretion efficiency is 5.28.
Sequence MKKSSYCSYQRQVILSGVALTQLS returned an AmyQ secretion efficiency of 7.04.
For the sequence MMIKQCTICLSLLVFGTTAAHAEET, the AmyQ secretion efficiency came to 2.71.
Then MKLAKRVSALTPSTTLAIATVLATAKAKEL, with 6.28; and MKNMSCKLVVSVTLFFSFLTIGPLAHNQNS, with 5.52.
Then MKRKRKRIMIFLTSFMLLAMTGQTALAKDV, with 3.59.
Then MGLGKKLKKKKAASFMSLSISLPGVQAAEG, with 7.92; and MKRLCRKKRKKSLFLVLLPGKALGAVD, with 7.45; and MKKKLAAGLTASAIVGTTLVVTPWEAATI, with 6.58.
For MKWMCSICCAAVLLAGGALQAEAV, the AmyQ secretion efficiency was 2.66.
Then MKNMSCKLVVSVTLFFSFLTIGPLAHAQKR, with 1.94; and MPYLKRVLLLLVTGLFMSLFAVTATWSAQTG, with 6.1.
MKSKGSIMACLILFSFTITTFINTETHSAFSN showed an AmyQ secretion efficiency of 7.73.
MKKAFLVFLSVVLVTTVFLVKQQESVAQPKQL showed an AmyQ secretion efficiency of 4.94.
Sequence MNFKKTVVSALSISALALTVTSISVSGVASAHEI registered an AmyQ secretion efficiency of 3.48.
Under MGMKKKLSLGVASAALGLALVGGGSWAAFN stands 6.13.
MPINTFVMMCLAVTLVFGSMSFPTLTNSGGFKE displayed an AmyQ secretion efficiency of 7.23.
Under MRGKSAVLLSLIMLIAGFLIWFSFQM stands 7.55; under MLCVMMLLFSAIAAFTVTAQAKDQ, 6.83; under MLKKIALTLCPAIVGSLLFFTAPASTHVS, 5.85.
Under MFNRLFRVCFLAALIMAFTLPNSNYAQKP stands 5.99; under MNKFLKSNFRFKRAAALGISLLASSNFIKASND, 3.29; under MKRIRIPMTLALGAALTIAPLDEDASAEEN, 3.3.
Under MNLRKIRKKRALSLGMLVSAAPVLATSS stands 7.46; under MLKKIALTLCPAIVGSLLFFTAPTSAHVS, 3.63; under MKSKGSIMACLILFSFTITTTINTETISAFSN, 5.95.
MMKKGQSGSALTATVLFGTCAVDVPGIISPKTAEAASQ returned an AmyQ secretion efficiency of 6.78.
For the sequence MKVLLSALLLLLFAFEPSASGAKR, the AmyQ secretion efficiency turned out to be 4.45.
In turn, MSNLCVMMLLFSAIASFPVSAQAKDQ registered an AmyQ secretion efficiency of 3.93.
Then MKKGIIRFRRVSFVLFFALSTGITGVQAAPA, with 2.36.
Under MKWMCSICCAAVLLAGGAAQGEAV stands 3.2.
Under MKRLLSTLLIGIMLLTFAPSTFAKQD stands 1.72; under MGLGKKLSVAVAASFMSLSISLPGSQAAEG, 2.3; under MKKRLIAPMLLSAASLAFFAMSGSAQRAAY, 6.9.
Sequence MKKAKRVSALTPSTTLAITAKAKEL showed an AmyQ secretion efficiency of 7.61.
MKKCLLFLTTIALILISLSTNAFAKNT gave an AmyQ secretion efficiency of 2.13.
Then MKRLLVSLRVWMVFLMNWVTPDRKTEAAAVY, with 6.9; and MKQIMIFLTSFMLLAMTGQTTLAKDV, with 3.1.
For the sequence MKKWMAGLFLAAAVLLCLMVPQQIQGKKK, the AmyQ secretion efficiency worked out at 4.71.
Under MKRLLVSLRVWMVFLMNWVTPDRKTAAPAVY stands 6.03; under MKNMSCKLVVSVTLFFSFLTIGPLNHAQNS, 5.54.
On to MKKSAAVLLSLGLVSGFSYGAGHVAEAKTK, for which the AmyQ secretion efficiency stood at 2.59.
Then MKKKLKRKKRRSAIVGTTLVVTPAEAATI, with 6.61.
Then MKKTIMSFVAVAALSTTAFGAHASAKKR, with 2.68.
MKLSVKIAGVLTVAAAAMTAGMYATAKGN: the AmyQ secretion efficiency came out at 5.78.
Under MVKKWYYQSKSSLSVLSTFTYSASAVGV stands 5.88; under MKSKGSIMACRRKRRRTITTFINTETISAFSN, 6.8.
Consider MKKKQVMLALTAAAGLGLTALHSAPAIKAAPL, for which the AmyQ secretion efficiency came to 4.18.
Then MRKKCSVCRRKKVLLLSCLSGKSAYAATS, with 7.48.
Under MRSYIKFNFIISVLTMCFLGLILFVPTALADNS stands 1.36.
Then MRMLWRSLALCGLALTLAFLSVSLFFVPCAQAAEP, with 1.41; and MKKQIITATTAVVLGSTLFAVGAASAQSI, with 2.23.
As for MKKRLIGFLVLVPALIMSGITLIEDNKK, the AmyQ secretion efficiency worked out at 7.79.
Sequence MKLWMRKTLVVLFTIVTFGLVSPPAALMCDKP yielded an AmyQ secretion efficiency of 2.74.
As for MKKAAAVLLSLGLVFGFSYGAGHVVPTAAEAKTK, the AmyQ secretion efficiency was determined as 4.57.
Under MTKLKMLSMLTVMIASLFIFSSQQLAVQY stands 6.53; under MSSCGGILIVCSLAAILLLIPSVSFAADS, 4.26.
Under MKRLKVSLRVWMVFLMNWVTPDRKTAAAAVY stands 6.85; under MKKLALTAAAGLGLTALHSAPAAKAAPL, 3.02.
With MKLAKRVSALTPSTTLAITAKYKEL, the AmyQ secretion efficiency came to 5.07.
MKLWMRKTLVVLFTIVTFGLVSPPAARMADKP returned an AmyQ secretion efficiency of 2.4.
Then MKKRKRRNFKRFIAAFLVLALMISLVPADVLGKST, with 3.14.
Under MFLKLLLATSALTFSLSLVLPLDGHAKAQEV stands 2.93; under MKKKLAAGLTASAIVGTTLVVTPREAATI, 6.83; under MKKRITYSTSYQQTRVAFAFTDSSKAKAAEA, 6.55.
In the case of MKKKLAAGLTASAIVGTTLVRKKKAEAATI, the AmyQ secretion efficiency was found to be 8.06.
Then MMKKGLLAGALTATVLFGTCAVDVPGIISPKTIEAASQ, with 4.02; and MKKRRKSFVAVAALSTTAFGAHASAKEI, with 6.63.
Then MKKKQVMLALTAAAGLGLTALHSAPAFKAAPL, with 6.7; and MLTKRLLTIYIMLLGLIAWFPGAAQAAKK, with 4.2.
MGLGKKLSVAVAASFMSLSISLDDEVQAAEG gave an AmyQ secretion efficiency of 1.35.
In turn, MKKWIYVVLVLSIAGIGGFSVHMASS showed an AmyQ secretion efficiency of 5.57.
On to MKKRRVLMAFIICLSLILSVLAAPPSGAKAESV, for which the AmyQ secretion efficiency came to 1.87.
Sequence MPIKKKVMMCLAVTLVFGSMSFPTLTNSGFFKE returned an AmyQ secretion efficiency of 4.32.
Then MNLRKILLSSALSLGMLVSAAPVLLTSS, with 7.26; and MLKKKWMVGLLAGCLAAGGFSYNAFNTEN, with 6.56; and MKKKIVAGLAVSAGSSMAAAPAEAKTI, with 7.16.
With MNKLKRLSMLTVMIASVFIFSSHCLAAQY, the AmyQ secretion efficiency is 2.86.
Then MKKKRLLAGALTATVLFGTCAVDVPGIISPKTAEAASQ, with 1.66; and MKKLVLCVSILAVILSGVALTQLS, with 5.95 and 6.59 and 6.66.
Then MMMLRKIIGWILLLCIIPLFAFTVIASGKEV, with 5.45.
As to MMKKGLLAGALTATVLFGTCAVDVPGIISPKTAEAAKR, the AmyQ secretion efficiency came out at 4.03.
Under MNKLKRLSMLTVMIASVFIFSSHALMAQY stands 7.08.
Regarding MKKWLIIAVSLAIAIVLFDDTDGEAKAAGM, the AmyQ secretion efficiency turned out to be 2.55.
Under MKRLLSTLLIGIMLLTFAPSVFAKQD stands 1.93.
Under MNKPTKLFILLALAALMFAAAAGGAGTIHAQQP stands 1.87; under MKKAFILSAAAAVGLFTFGGVQQSSAKEL, 4.21; under MNKKYFVLIVCIIFTSALFPTFSSCTAAQG, 1.18.
On to MTKKAWFLPLVCVLLISGWLAPAASASAQTK, for which the AmyQ secretion efficiency was found to be 1.59.
Under MKRKRLFIFSAILTLSIFAPNETFAQTA stands 1.57; under MFKKLLLATSALTFSLSLVLDAKAQEV, 2.17.
Regarding MTMLRKIIGWILLLCIIPLFAFTVIPVVTVASGKEV, the AmyQ secretion efficiency was determined as 4.51.
Then MKKSQYFIVFICFFVLFSVHPIASAAADS, with 4.61; and MGLGKKLSVAVAASFMSLSISLPGVQYAEG, with 4.06.
Then MKKSQYFIVFICFFVLFSVHPIAEAAADS, with 3.62.

(Values after the supplement of paper PMC9942255.)
